{"source": "patent US20220119534A1", "about": "(DRAGONFLY THERAPEUTICS, published 2022)", "key": {"[1]": {"target": "T1, Human CLEC12A expressed on cells (Ba/F3-hCLEC12A, PL21, HL60) (human, UniProt Q5QGZ9 1-265)", "T1 sequence": "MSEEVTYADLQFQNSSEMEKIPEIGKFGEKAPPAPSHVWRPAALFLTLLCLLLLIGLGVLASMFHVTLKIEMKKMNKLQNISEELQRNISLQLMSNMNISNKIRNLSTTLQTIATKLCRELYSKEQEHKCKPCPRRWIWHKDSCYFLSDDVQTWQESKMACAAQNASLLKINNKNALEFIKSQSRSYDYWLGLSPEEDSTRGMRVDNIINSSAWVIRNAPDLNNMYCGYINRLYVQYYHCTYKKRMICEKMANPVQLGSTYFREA", "assay": "cell-based or functional assay"}, "[2]": {"target": "T2, Human CLEC12A-His (recombinant, K244 WT) (human, UniProt Q5QGZ9 65-265)", "T2 construct": "Made in house (Dragonfly Tx); also called hCLEC12A; hCLEC12A-His; not shown: His tag", "T2 sequence": "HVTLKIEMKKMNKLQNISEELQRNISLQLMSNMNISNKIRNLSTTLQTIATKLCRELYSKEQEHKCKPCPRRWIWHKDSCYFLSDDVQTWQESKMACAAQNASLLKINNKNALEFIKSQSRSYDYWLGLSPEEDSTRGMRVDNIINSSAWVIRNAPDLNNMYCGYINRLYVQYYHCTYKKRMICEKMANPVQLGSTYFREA", "assay": "SPR, two-state fit (kd1); after low pH hold"}, "[3]": {"target": "T2, Human CLEC12A-His (recombinant, K244 WT)", "assay": "SPR, two-state fit (ka1); after pH 5.0, 40C, 2 wks"}, "[4]": {"target": "T3, human CLEC12A on cells (HL60, PL21, Ba/F3-hCLEC12A) (human, UniProt Q5QGZ9 1-265)", "T3 construct": "Endogenous on the AML lines HL60 and PL21; brought into mouse Ba/F3 cells by retroviral transduction; The cell line stands under assay; also called CLL-1", "T3 sequence": "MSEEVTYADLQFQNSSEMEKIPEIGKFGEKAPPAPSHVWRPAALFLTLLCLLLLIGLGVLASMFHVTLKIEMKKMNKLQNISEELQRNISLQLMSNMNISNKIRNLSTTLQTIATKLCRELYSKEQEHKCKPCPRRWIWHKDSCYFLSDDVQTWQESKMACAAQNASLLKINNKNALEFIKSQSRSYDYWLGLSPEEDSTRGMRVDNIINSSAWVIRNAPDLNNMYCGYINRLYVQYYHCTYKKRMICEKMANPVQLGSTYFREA", "assay": "flow cytometry, HL-60 cells"}, "Human CLEC12A-His [5]": {"target": "T4, Human CLEC12A-His (human, UniProt Q5QGZ9 65-265)", "T4 construct": "Recombinant soluble protein made in house; also called hCLEC12A-His; hCLEC12A; not shown: His tag", "T4 sequence": "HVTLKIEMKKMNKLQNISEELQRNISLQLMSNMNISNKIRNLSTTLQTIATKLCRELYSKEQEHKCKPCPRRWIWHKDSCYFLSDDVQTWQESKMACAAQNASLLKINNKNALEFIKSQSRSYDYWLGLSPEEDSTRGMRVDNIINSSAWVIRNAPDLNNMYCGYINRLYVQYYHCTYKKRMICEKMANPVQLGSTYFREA", "assay": "SPR; control sample (pH 8 stress study)"}, "mFc-hNKG2D": {"target": "T5, mFc-hNKG2D (human, UniProt P26718 73-216)", "T5 construct": "extracellular domain; Recombinant mFc-tagged NKG2D dimer, made in house; also called human NKG2D; not shown: mouse Fc tag", "T5 sequence (looked up)": "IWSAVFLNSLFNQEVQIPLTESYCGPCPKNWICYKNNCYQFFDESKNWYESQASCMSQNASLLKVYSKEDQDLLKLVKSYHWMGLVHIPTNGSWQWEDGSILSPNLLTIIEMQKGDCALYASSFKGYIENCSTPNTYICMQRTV", "assay": "SPR; control sample (pH 8 stress study)"}, "Human CD16a V158": {"target": "T6, Human CD16a V158 (human, UniProt P08637 17-208, biotinylated)", "T6 construct": "Bought recombinant receptor; also called hCD16a (V158); hFcγRIIIa V158", "T6 sequence (P08637 17-208 F176V limits assumed)": "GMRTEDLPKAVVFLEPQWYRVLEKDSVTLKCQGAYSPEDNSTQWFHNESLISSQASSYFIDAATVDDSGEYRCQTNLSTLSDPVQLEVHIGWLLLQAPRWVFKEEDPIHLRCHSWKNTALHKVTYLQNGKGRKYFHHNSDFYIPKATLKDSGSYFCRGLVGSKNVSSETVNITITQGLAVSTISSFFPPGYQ", "assay": "SPR; control sample (pH 8 stress study)"}, "Human FcRn": {"target": "T7, Human FcRn (human, UniProt P55899 24-297; P61769 21-119)", "T7 construct": "Bought recombinant receptor; also called hFcRn", "T7 sequence (P55899 24-297 limits assumed, chain 1 of 2)": "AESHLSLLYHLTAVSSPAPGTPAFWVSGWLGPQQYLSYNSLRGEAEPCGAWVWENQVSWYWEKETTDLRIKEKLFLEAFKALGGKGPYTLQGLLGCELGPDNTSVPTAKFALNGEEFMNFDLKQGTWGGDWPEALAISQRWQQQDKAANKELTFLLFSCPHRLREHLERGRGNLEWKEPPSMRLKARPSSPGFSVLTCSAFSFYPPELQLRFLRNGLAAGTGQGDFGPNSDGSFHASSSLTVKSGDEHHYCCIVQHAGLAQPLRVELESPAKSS", "T7 sequence (P61769 21-119 limits assumed, chain 2 of 2)": "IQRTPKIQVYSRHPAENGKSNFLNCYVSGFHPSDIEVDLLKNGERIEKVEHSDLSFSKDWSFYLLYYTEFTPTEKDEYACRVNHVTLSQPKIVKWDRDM", "assay": "SPR, steady state fit; average for AB0192"}, "Cynomolgus FcRn": {"target": "T8, Cynomolgus FcRn (cynomolgus monkey, UniProt Q8SPV9 24-297; Q8SPW0 21-119)", "T8 construct": "Bought recombinant receptor; also called cFcRn; Cyno FcRn", "T8 sequence (Q8SPV9 24-297 limits assumed, chain 1 of 2)": "as the sequence (P55899 24-297 limits assumed, chain 1 of 2) above, with N39D, E44Q, G99S, S189G, S190N, L217M, S269T counted along it", "T8 sequence (Q8SPW0 21-119 limits assumed, chain 2 of 2)": "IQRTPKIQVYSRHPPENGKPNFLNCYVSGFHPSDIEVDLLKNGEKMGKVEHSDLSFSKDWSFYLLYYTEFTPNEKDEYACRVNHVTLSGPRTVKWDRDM", "assay": "SPR, steady state fit; average for AB0192"}, "Human CLEC12A-His [6]": {"target": "T4, Human CLEC12A-His", "assay": "SPR, 37 C, AB0192 captured, hCLEC12A-His analyte; average of 3 replicates"}}}
{"binder": "AB0089 TriNKET (bispecific antibody, human IgG1, kappa, F3' format heterodimer of three chains; human IgG1 Fc with EW-RVT and Y349C/S354C mutations; also called AB0089 Lot AB0089-002; CLEC12A TriNKET AB0089) QLQLQESGPGLVKPSETLSLTCTVSGFSLTNYGLHWIRQPPGKCLEWIGVIWVGGATDYNPSLKSRVTISVDTSKNQFSLKLSSVQAADTAVYYCAKGDYGDTLDYWGQGTLVTVSSGGGGSGGGGSGGGGSGGGGSDIQMTQSPSSLSASVGDRVTITCHASQNINFWLSWYQQKPGKAPKLLIYEASNLHTGVPSRFSGSGSGTDFTLTISSLQPEDFATYYCQQSHSYPLTFGCGTKLEIKGSDKTHTCPPCPAPELLGGPSVFLFPPKPKDTLMISRTPEVTCVVVDVSHEDPEVKFNWYVDGVEVHNAKTKPREEQYNSTYRVVSVLTVLHQDWLNGKEYKCKVSNKALPAPIEKTISKAKGQPREPRVYTLPPCRDELTKNQVSLTCLVKGFYPSDIAVEWESNGQPENNYKTTPPVLVSDGSFTLYSKLTVDKSRWQQGNVFSCSVMHEALHNHYTQKSLSLSPG heavy: EVQLVESGGGLVKPGGSLRLSCAASGFTFSSYSMNWVRQAPGKGLEWVSSISSSSSYIYYADSVKGRFTISRDNAKNSLYLQMNSLRAEDTAVYYCARGAPIGAAAGWFDPWGQGTLVTVSSASTKGPSVFPLAPSSKSTSGGTAALGCLVKDYFPEPVTVSWNSGALTSGVHTFPAVLQSSGLYSLSSVVTVPSSSLGTQTYICNVNHKPSNTKVDKKVEPKSCDKTHTCPPCPAPELLGGPSVFLFPPKPKDTLMISRTPEVTCVVVDVSHEDPEVKFNWYVDGVEVHNAKTKPREEQYNSTYRVVSVLTVLHQDWLNGKEYKCKVSNKALPAPIEKTISKAKGQPREPQVCTLPPSRDELTENQVSLTCLVKGFYPSDIAVEWESNGQPENNYKTTPPVLDSDGSFFLYSWLTVDKSRWQQGNVFSCSVMHEALHNHYTQKSLSLSPG light: DIQMTQSPSSVSASVGDRVTITCRASQGISSWLAWYQQKPGKAPKLLIYAASSLQSGVPSRFSGSGSGTDFTLTISSLQPEDFATYYCQQGVSFPRTFGGGTKVEIKRTVAAPSVFIFPPSDEQLKSGTASVVCLLNNFYPREAKVQWKVDNALQSGNSQESVTEQDSKDSTYSLSSTLTLSKADYEKHKVYACEVTHQGLSSPVTKSFNRGEC", "values": [{"measurement": "EC50, KHYG-1-CD16aV cytotoxicity assay; after 4 wks 40C in HST pH 6.0", "setting": "[1]", "result": 0.17, "unit": "nM"}, {"measurement": "EC50, KHYG-1-CD16aV cytotoxicity assay; control sample", "setting": "[1]", "result": 0.16, "unit": "nM"}, {"measurement": "koff", "setting": "[2]", "result": 0.0465, "unit": "s⁻¹"}, {"measurement": "kon", "setting": "[3]", "result": "8.62e+06", "unit": "M⁻¹ s⁻¹"}]}
{"binder": "AB0192 TriNKET (other, the condition stands under assay; also called AB0192 Lot AB0192-005) EVQLVESGGGVVQPGGSLRLSCAASGFTFNAFGMHWVRQAPGKCLEWVAFISSGSTSIYYANTVKGRFTISRDNSKNTLYLQMNSLRAEDTAVYYCARDGYPTGGAMDYWGQGTSVTVSSGGGGSGGGGSGGGGSGGGGSDIQMTQSPSSLSASVGDRVTITCKASQDIYNYLSWFQQKPGKAPKPLIYRANILVSGVPSRFSGSGSGQDYTFTISSLQPEDIATYYCLQFDAFPFTFGCGTKLEIKGSDKTHTCPPCPAPELLGGPSVFLFPPKPKDTLMISRTPEVTCVVVDVSHEDPEVKFNWYVDGVEVHNAKTKPREEQYNSTYRVVSVLTVLHQDWLNGKEYKCKVSNKALPAPIEKTISKAKGQPREPRVYTLPPCRDELTKNQVSLTCLVKGFYPSDIAVEWESNGQPENNYKTTPPVLVSDGSFTLYSKLTVDKSRWQQGNVFSCSVMHEALHNHYTQKSLSLSPG heavy: EVQLVESGGGLVKPGGSLRLSCAASGFTFSSYSMNWVRQAPGKGLEWVSSISSSSSYIYYADSVKGRFTISRDNAKNSLYLQMNSLRAEDTAVYYCARGAPIGAAAGWFDPWGQGTLVTVSSASTKGPSVFPLAPSSKSTSGGTAALGCLVKDYFPEPVTVSWNSGALTSGVHTFPAVLQSSGLYSLSSVVTVPSSSLGTQTYICNVNHKPSNTKVDKKVEPKSCDKTHTCPPCPAPELLGGPSVFLFPPKPKDTLMISRTPEVTCVVVDVSHEDPEVKFNWYVDGVEVHNAKTKPREEQYNSTYRVVSVLTVLHQDWLNGKEYKCKVSNKALPAPIEKTISKAKGQPREPQVCTLPPSRDELTENQVSLTCLVKGFYPSDIAVEWESNGQPENNYKTTPPVLDSDGSFFLYSWLTVDKSRWQQGNVFSCSVMHEALHNHYTQKSLSLSPG light: DIQMTQSPSSVSASVGDRVTITCRASQGISSWLAWYQQKPGKAPKLLIYAASSLQSGVPSRFSGSGSGTDFTLTISSLQPEDFATYYCQQGVSFPRTFGGGTKVEIKRTVAAPSVFIFPPSDEQLKSGTASVVCLLNNFYPREAKVQWKVDNALQSGNSQESVTEQDSKDSTYSLSSTLTLSKADYEKHKVYACEVTHQGLSSPVTKSFNRGEC", "values": [{"measurement": "EC50", "setting": "[4]", "result": 0.6, "unit": "nM"}, {"measurement": "Kd", "setting": "Human CLEC12A-His [5]", "result": 1.68, "unit": "nM"}, {"measurement": "koff", "setting": "Human CLEC12A-His [5]", "result": 0.00129, "unit": "s⁻¹"}, {"measurement": "kon", "setting": "Human CLEC12A-His [5]", "result": 771000, "unit": "M⁻¹ s⁻¹"}, {"measurement": "Kd", "setting": "mFc-hNKG2D", "result": 588, "unit": "nM"}, {"measurement": "koff", "setting": "mFc-hNKG2D", "result": 0.122, "unit": "s⁻¹"}, {"measurement": "kon", "setting": "mFc-hNKG2D", "result": 208000, "unit": "M⁻¹ s⁻¹"}, {"measurement": "Kd", "setting": "Human CD16a V158", "result": 171, "unit": "nM"}, {"measurement": "koff", "setting": "Human CD16a V158", "result": 0.0199, "unit": "s⁻¹"}, {"measurement": "kon", "setting": "Human CD16a V158", "result": 117000, "unit": "M⁻¹ s⁻¹"}, {"measurement": "Kd", "setting": "Human FcRn", "result": 1500, "unit": "nM"}, {"measurement": "Kd", "setting": "Cynomolgus FcRn", "result": 1400, "unit": "nM"}, {"measurement": "Kd", "setting": "Human CLEC12A-His [6]", "result": 1.81, "unit": "nM"}, {"measurement": "koff", "setting": "Human CLEC12A-His [6]", "result": 0.0014, "unit": "s⁻¹"}, {"measurement": "kon", "setting": "Human CLEC12A-His [6]", "result": 776000, "unit": "M⁻¹ s⁻¹"}]}
